Assay results reported in patent US20130101582A1, “Tiki1 and Tiki2, Wnt Inhibitors” (CHILDREN'S MEDICAL CENTER CORPORATION, priority 2010, published 2013).

Columns and labels:
Tiki1 expression = assay: Regulation of Tiki1 and Dkk1 expression by maternal Wnt signaling, RT-PCR; assay type: in vivo; settings: Xenopus embryos, RT-PCR at stage 10.5
Experimental: FIG. 3C is a gel showing that Tiki1 expression is regulated by maternal Wnt signaling. Whole embryos were used for LiCl or UV treatment. 20 or 40 pg of Xwnt8 mRNA was injected into ventral marginal zone (VMZ) at 4 to 8-cell stage and VMZ was dissected at stage 10.5 for RT-PCR. ΔNTCF mRNA (1 or 2 ng) was injected into dorsal marginal zone (DMZ) at 4 to 8-cell stage and DMZ was dissected at stage 10.5 for RT-PCR. Con: control.
SO formation requires maternal Wnt/β-catenin signaling (De Robertis, E. M. et al., Annu Rev Cell Dev Biol 20, 285-308 (2004); Harland, R. et al., Annu Rev Cell Dev Biol 13, 611-667 (1997)), which we found is necessary and sufficient for Tiki1 (and Dkk1) expression.

Wnt3a signaling = assay: TOPFLASH reporter assay, Wnt3a co-transfected with Tiki1 or Tiki2 in HEK293T cells; assay type: cell-based, human
Source text: Wnt3a and Tiki1 or Tiki2 were co-transfected. The TOPFLASH reading (normalized to Renilla) in Wnt3a alone was set as 100. DNA transfection amounts are shown per well in a standard 24-well plate format. Representative data from one of three independent experiments is shown.
The enlarged head phenotype by Tiki1 overexpression is indistinguishable from that by overexpression of Dkk1, a Wnt/LRP6 antagonist (MacDonald, B. T. et al., Dev Cell 17, 9-26 (2009); Glinka, A. et al., Nature 391, 357-362 (1998)). […] Thus Tiki1 likely acts at or upstream of Wnt receptors. […] Xenopus Tiki2, and human Tiki1 and Tiki2 also behaved as Wnt antagonists in Xenopus embryos, HEK293T cells (FIG. 2C) and mouse L cells (FIG. 5A).

[1] = biological target: Recombinant human WNT3A protein (Homo sapiens, UniProt P56704); assay: In vitro incubation of recombinant WNT3A with purified protein, Triton X-114 phase separation; assay type: biochemical; settings: purified protein incubated with recombinant human WNT3A
Experimental: FIG. 6G is a gel showing that recombinant WNT3A was incubated with Krm2N or Tiki2N purified from WCL (top) or from CM (bottom) and was subjected to Triton X-114 phase separation.
FIG. 6H is a gel showing that Recombinant WNT3A was incubated with Krm2N or Tiki2N or Tiki2NΔ. purified from WCL and was subjected to Triton X-114 phase separation.
Recombinant human Tiki2N, which is the ectodomain harboring the conserved Tiki domain (FIG. 6J), was purified, via tandem affinity procedures from HEK293T cell extracts or CM.

Sequence of Recombinant human WNT3A protein (P56704 19-352): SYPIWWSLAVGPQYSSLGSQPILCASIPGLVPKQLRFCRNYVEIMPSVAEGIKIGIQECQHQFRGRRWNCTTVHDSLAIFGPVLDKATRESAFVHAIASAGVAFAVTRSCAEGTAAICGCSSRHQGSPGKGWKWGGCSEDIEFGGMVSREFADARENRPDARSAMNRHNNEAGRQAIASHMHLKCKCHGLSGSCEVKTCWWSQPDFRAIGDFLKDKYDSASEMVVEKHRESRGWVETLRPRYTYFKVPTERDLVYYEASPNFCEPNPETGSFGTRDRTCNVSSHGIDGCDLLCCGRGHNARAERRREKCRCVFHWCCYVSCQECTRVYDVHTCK

[Cl-].[Li+] [LiCl]
Tiki1 and Dkk1 expression (Tiki1 expression): induced Tiki1 and Dkk1 expression

B1: Human Tiki1: Human Tiki1 (Q86V40/LOC129293) (SEQ ID NO:1), expressed by transfection (protein, listed as Homo sapiens)
chain: MSPWSWFLLQTLCLLPTGAASRRGAPGTANCELKPQQSELNSFLWTIKRDPPSYFFGTIHVPYTRVWDFIPDNSKEAFLQSSIVYFELDLTDPYTISALTSCQMLPQGENLQDVLPRDIYCRLKRHLEYVKLMMPLWMTPDQRGKGLYADYLFNAIAGNWERKRPVWVMLMVNSLTEVDIKSRGVPVLDLFLAQEAERLRKQTGAVEKVEEQCHPLNGLNFSQVIFALNQTLLQQESLRAGSLQIPYTTEDLIKHYNCGDLSSVILSHDSSQVPNFINATLPPQERITAQEIDSYLRRELIYKRNERIGKRVKALLEEFPDKGFFFAFGAGHFMGNNTVLDVLRREGYEVEHAPAGRPIHKGKSKKTSTRPTLSTIFAPKVPTLEVPAPEAVSSGHSTLPPLVSRPGSADTPSEAEQRFRKKRRRSQRRPRLRQFSDLWVRLEESDIVPQLQVPVLDRHISTELRLPRRGHSHHSQMVASSACLSLWTPVFWVLVLAFQTETPLL
Wnt3a signaling, TOPFLASH reporter (Wnt3a signaling): inhibit Wnt3a signaling

B2: Tiki2NΔ: deletion mutant lacking a segment of the Tiki domain, inactive in modifying WNT3A (protein)
chain: RPQPPDGGQCRPPGSQRDLNSFLWTIRRDPPAYLFGTIHVPYTRVWDFIPDNSKAAFQASTRVYFELDLTDPYTISALASCQLLPHGENLQDVLPHELYWRLKRHLDYVKLMMPSWMTPAQRGKGLYADYLFNAIAGNWERKRPVWVMLMVNSLTERDVRFRGVPVLDLYLAQQAEKMKKTTGAVEQVEEQCHPLNNGLNFSQVLFALNQTLLQQESVRAGSLQASYTTEDLIKHYNCGDLSAVIFNHDTSQLPNFINTTLPPHEQVTAQEIDSYFRQELIYKRNERMGKRVMALLRENEDKICFFAFGAGHFLGNNTVIDILRQAGLEVDHTPAGQAIHSPAPQSPAPSPEGTSTSPAPVTPAAAVPEAPSVTPTAPPEDEDPALSPHLLLPDSLSQLEEFGRQRKWHKRQSTHQRPRQFNDLWVRIEDSTTASPPPLPLQPTHSSGTAKPPFQLSDQLQQQDPPG
modifications: left off: small tags and cut ends
Partitioning of WNT3A in Triton X-114 phase separation after in vitro incubation [1]: remained in the detergent phase

B3: KrmN: control recombinant protein, ectodomain of the transmembrane Kremen protein (protein, UniProt Q8NCW0 26-364, looked up)
extracellular domain: GSLHSPGLSECFQVNGADYRGHQNRTGPRGAGRPCLFWDQTQQHSYSSASDPHGRWGLGAHNFCRNPDGDVQPWCYVAETEEGIYWRYCDIPSCHMPGYLGCFVDSGAPPALSGPSGTSTKLTVQVCLRFCRMKGYQLAGVEAGYACFCGSESDLARGRLAPATDCDQICFGHPGQLCGGDGRLGVYEVSVGSCQGNWTAPQGVIYSPDFPDEYGPDRNCSWALGPPGAALELTFRLFELADPRDRLELRDAASGSLLRAFDGARPPPSGPLRLGTAALLLTFRSDARGHAQGFALTYRGLQDAAEDPEAPEGSAQTPAAPLDGANVSCSPRPGAPPAA
modifications: extracellular domain
Partitioning of WNT3A in Triton X-114 phase separation after in vitro incubation [1]: remained in the detergent phase
